From the nanobody polyreactivity screen of Harvey et al. (2022)

Test: yeast display, Sf9 membrane polyspecificity reagent, FACS + sequencing; frameworks hold sequencing errors
Outline: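 Polyreactivity labels are assigned by the sorting gate from which each nanobody was recovered. The gates were low and high (top ~1%), set on anti-HA fluorescence for expression and streptavidin fluorescence for reagent binding. Before sorting, galactose-induced (36–48 hours) yeast display cells were stained for 1 hour at 4 °C with 10% biotinylated, detergent-solubilized Sf9 membrane reagent.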

Sequence: QVQLVESGGGLVQAGGSLRLSCAASGRTFRPYAMGWYRQAPGKERELVAAISSRGSSTYYADSVKGRFTISRDNAKNTVYLQMNSLKPEDTAFYYCAAEGSVGLYGLIMHYWGQGTQVTVSS
- polyreactivity (PSR sort gate): high polyreactivity

Sequence: QVQLVESGGGLVQAGGSLRLSCAASGRIFYGNVMGWYRQAPGKERELVAAITRSGGSTYYADSVKGRFTISRDYAKNTVYLQMNSLKPEDTAVYYSNDALVSRDRSYEYWGQGTQVTVSS
- polyreactivity (PSR sort gate): high polyreactivity

Sequence: QVQLVESGGGLVQAGGSLRLSCAASGSIFYGYAMGWYRQAPGKERELVAAITSSGTRTYYADSVKGRFTISRDNAKNTVYLQMNSLKPEDTAVYYCAADGPGYQYDYWGQGTQVTVSS
- polyreactivity (PSR sort gate): high polyreactivity

Sequence: QVQLVESGRGLVQAGGSLRISCAASGSTFYPNAMGWYRQAPGKEREFVAAISTSAGRTYYADSVKGRFTISRDNAKNTVYLQMNSLKPEDTAVYYCNARYWVYYVYEFDSWGQGTQVTVSS
- polyreactivity (PSR sort gate): low polyreactivity

Sequence: QVQLVESGGGLVQAGGSLRLSCAASGYTFYPYDIGWYRQAPGKERELVAAISWSGGGTYYADSVKGRFTISRDNAKNTVYLQMNSLKPEDTAVYYCAADLKALNQSYPGYEYWGQGTQVTVSS
- polyreactivity (PSR sort gate): low polyreactivity

Sequence: QVQRVESGGGLVQAGGSLRLSCAASGSIFSIYAMGWNRQAPGKEMEFVAAIDSGTSTTYADSVKGRFTISRDNAKNTVYLQMNSLKPEDTAVYYCAAALYSDVAAVSTYGYYWGQGTQVTVSS
- polyreactivity (PSR sort gate): low polyreactivity

Sequence: QVQLVESGGGLVQAGGSLRLSCAASGGTFRSNAMGWYRQAPGKERELVAASTNYADSVKGRFTISRDNAKNTVYLQMNSLKPEDTAVYYCAAGPTDSQSGMDYWGQGTQVTVSS
- polyreactivity (PSR sort gate): low polyreactivity

Sequence: QVQLVESGGGLVQARGSLRLSCAASGRTFTYNAMAWYRQAPGKERELVAAINSGGSTNYADSVKGRFTISRDNAKNTVYLQMNSLKPEDTAVYYCNAGFGFGSSRYGTRYYYWGQGSQVTVSS
- polyreactivity (PSR sort gate): low polyreactivity

Sequence: QVQLVESVGGLVQAGGSLRLSCAASGSTFYTYDMGWYRQAPGKERELVAAISRRDGITYYADSVKGRFTISRDNAKNTVYLQMNILKPEYTAVYYCAAEDAYLYYDFDYWGQGTQVTVSS
- polyreactivity (PSR sort gate): low polyreactivity

Sequence: QVQLVESGGGLVQAGGRLRLSCAASGITSLDNAMGWYRQAPGKQRELVAGIKSGGSTNYADSVKGRFTISRDNAKNTVYLQMNSLKPEDTAVYYCAADDFIGSGRLVARGRYDYWGQGTQVTVSS
- polyreactivity (PSR sort gate): low polyreactivity

Sequence: QVQLVDSGAGLVQAGGSLRLSCDASGSTFRGYAMGWYRQSPWKERELVAAITYISDSTYYADSVKGRFTISRDNAKNTVFLQMISLNPEDTAVYYCNAYYDGDWRYTSQVTGDLWGQGTQVTVSS
- polyreactivity (PSR sort gate): low polyreactivity

Sequence: QVQLVESGGGLVQAGGSLRLSCAASGFTFDFYVMGWYRQAPGKERELVAAITSGGGTYYADSVKGRFTISRDNAKNTVYLQMNSLKPEDTAVYYCAVSVTTVSTYDYWGQGTQVTVSS
- polyreactivity (PSR sort gate): low polyreactivity

Sequence: QVQLIESGGGLVQAGGSLRLSCAASGSTFYGNAMGWYRQAPGKEREFVDAITGSGDSTDYADSVKGRFTISRDNAKNTVYLQMNSLKPEDTAVYFCNAEVFDRDSYEYWGQGTQVSVSS
- polyreactivity (PSR sort gate): low polyreactivity

Sequence: QVQLVESGGGLVQAGGSLRLSCAASGSIFTGYTMGRYRQATGKERELVAAITWNGGSTYYADSVKGRFTISRDNAKNTVYLQMNSLKPEDTAVYYCAAVPYTPSPYTYGYWGQGTQVTVSS
- polyreactivity (PSR sort gate): high polyreactivity

Sequence: QVQLVESGGGLVQAGGSLRLSCAASGSIFYVNTMGWYRQAPGKERELVAGITSRGGSTYYADSVKGRFTISRDNAKNTVYLQMNSLKPEDTAVYYCAKRAYGTALYRGYGYWGQGTQVTVSS
- polyreactivity (PSR sort gate): low polyreactivity

Sequence: QVQLVESGGGLVQAGGSLRLSCAASGFTFYRNAMGWYRQAPGKEREVVAAISISGGSTYYADSVKGRFTISRDNAKNTVYLQMNSLKPEDTAVYYCAAYYYRDRYSRVKVTYWGLGTQVTVSS
- polyreactivity (PSR sort gate): high polyreactivity

Sequence: QVQLVESGGGLVQAGGSLRLSCASSGFTFDPYAMGWYRQAPGKERELVAAISWSGGSTYYADSVKGRFTISRDNAKNTVYLQMNSLKPEDTAVYYCAAEWYNSAYYEYDYWGQGTQVTVSS
- polyreactivity (PSR sort gate): high polyreactivity
